Common to all, as to assay: radioligand binding, displacement of [125I]EPO
On the technique in general: Displacement assays read how much labelled ligand stays bound in the presence of the test substance.

For experiment [1], the target named is T1, erythropoietin receptor, human recombinant (NSO cells) (human, UniProt P19235 25-250, limits assumed).
T1 construct: also called EPOR; EPO receptor
T1 sequence (looked up): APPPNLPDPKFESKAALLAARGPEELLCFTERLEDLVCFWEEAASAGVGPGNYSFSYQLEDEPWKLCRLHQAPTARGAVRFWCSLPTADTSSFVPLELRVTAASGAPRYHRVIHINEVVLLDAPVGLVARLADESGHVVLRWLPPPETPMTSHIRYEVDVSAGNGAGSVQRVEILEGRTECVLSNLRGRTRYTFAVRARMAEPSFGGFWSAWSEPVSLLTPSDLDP

In experiment [2] the target is T1, erythropoietin receptor, human …. This is another data set of the same source.
For experiment [3] the target is unchanged. This is another data set of the same source.
Experiment [4] addresses T2, erythropoietin receptor, human recombinant (NSO cells) (human) (UniProt P19235).
T2 sequence (looked up): T1 sequence (looked up)

Where two headings read alike, the source gives them in different places. Where no end group is shown, it is not given here. [ ]: non-standard residue; d: D form. hLeu = CC(C)CC[C@H](N)C(=O)O; βAla = NCCC(=O)O

B1: AC-0005-003 (peptide)
chain: NYLCRMGPITWVCKP
modifications: not fully specified; cysteine pairing not given here
notes: Structure only as drawing CHEM-US-00005; also called compound 003; Control 2: AC-0005-003
As usually defined, the IC50 is the concentration that gives 50% inhibition. The term Ki denotes the equilibrium dissociation constant of an inhibitor or competing ligand from its target. On to B1, for which the IC50 in experiment [1] was determined as 119 nM; in experiment [2], 171 nM; in experiment [3] it was 164 nM. In addition, the Ki in experiment [1] was found to be 56 nM; in experiment [2], 81 nM; in experiment [3] it was 78 nM. For the same molecule, the “Ki (AC-0005-002)/Ki” value in experiment [1] came out at 69; in experiment [2], 48; in experiment [3], 0.041.

Ac-NYLRMLWVRP (peptide, part only; not given: Bridge, linker and tail moieties, not shown: small tags and cut ends, also: two linked chains, linker and second chain not given here) [EPO mimetic 8. (N-End AcNYL, Loop RMLWV, Mid RP)]: in experiment [4], the Ki came out at 34 nM.

B2: AC-0005-001 (peptide)
chain: GGNYLCRMGPITWVCKPQGG
modifications: not fully specified; cysteine pairing not given here
notes: Structure only as drawing CHEM-US-00003; also called compound 001
For the molecule B2, in experiment [1], the IC50 amounted to 1300 nM, the Ki was determined as 615 nM and the “Ki (AC-0005-002)/Ki” value was determined as 6.3.

B3: AC-0005-002 (peptide)
chain: GGLYACHMGPITAVCQPQGG
modifications: not fully specified; cysteine pairing not given here
notes: Structure only as drawing CHEM-US-00004; also called compound 002
On to B3, for which, in experiment [1], the half-inhibitory concentration (IC50) was determined as 8170 nM, the inhibitory constant (Ki) came out at 3870 nM and the “Ki (AC-0005-002)/Ki” value is 1.

B4: AC-0005-004 (peptide)
chain: LYACHMGPITAVCQP
modifications: not fully specified; cysteine pairing not given here
notes: Structure only as drawing CHEM-US-00006; also called compound 004
As for B4, in experiment [1], the IC50 came to 265 nM, the Ki is 126 nM and the “Ki (AC-0005-002)/Ki” value was found to be 31.

Take Ac-NYLRMGWVRP (peptide, part only; not given: Bridge, linker and tail moieties, not shown: small tags and cut ends, also: two linked chains, linker and second chain not given here) [EPO mimetic 4. (N-End AcNYL, Loop RMGWV, Mid RP)]: in experiment [4], the Ki is 44 nM.

Consider [DesaminoY]LRMPWVKP (peptide, part only; not given: Bridge, linker and tail moieties, not shown: small tags and cut ends, also: two linked chains, linker and second chain not given here) [EPO mimetic 15. (N-End Desamino YL, Loop RMPWV, Mid KP)], for which the inhibition constant Ki in experiment [4] came to 9.6 nM.

Regarding Ac-NYLRMGWVKP (peptide, part only; not given: Bridge, linker and tail moieties, not shown: small tags and cut ends, also: two linked chains, linker and second chain not given here) [EPO mimetic 2. (N-End AcNYL, Loop RMGWV, Mid KP)], in experiment [4], the Ki was 22 nM.

With Ac-NYLRM[βAla]WVKP (peptide, part only; not given: Bridge, linker and tail moieties, not shown: small tags and cut ends, also: two linked chains, linker and second chain not given here) [EPO mimetic 3. (N-End AcNYL, Loop RMβAWV, Mid KP)], in experiment [4], the Ki was found to be 27 nM.

Regarding Ac-NYLRMFWVRP (peptide, part only; not given: Bridge, linker and tail moieties, not shown: small tags and cut ends, also: two linked chains, linker and second chain not given here) [EPO mimetic 6. (N-End AcNYL, Loop RMFWV, Mid RP)], the Ki in experiment [4] is 17 nM.

For the molecule Ac-NYLRM[hLeu]WVRP (peptide, part only; not given: Bridge, linker and tail moieties, not shown: small tags and cut ends, also: two linked chains, linker and second chain not given here) [EPO mimetic 9. (N-End AcNYL, Loop RMhomoLWV, Mid RP)], in experiment [4], the Ki was 23 nM.

Source of the values: patent US20170029481A1 (EPODOSE, published 2017).
